Legend:
rats = experiment: M-mode ECHO after 2 weeks of osmotic minipump delivery in rats; assay type: in vivo, rat; conditions: hCT1 6 μg/kg/hr
Method: FIGS. 3A, 3B, and 3C. […] Arrows (in upper panels) point to myocardial wall (RVLW). Dotted lines (in lower panels) show inner ventricle chambers.
CT-1 was tested in vivo to determine whether its administration would induce a myocardial adaptive remodeling characteristic of physiologic compensation (FIGS. 3A, 3B, and 3C). Osmotic minipumps containing PBS control (Ctrl) or hCT1 (6 μg/kg/hr) or Isoproterenol (ISO, 1 mg/kg/day) were implanted subcutaneously in rats. ISO is a beta-adrenergic receptor agonist and continuous infusion with ISO in rats is known to induce pathological cardiac hypertrophy and cardiomyocyte damage (in both the right and left ventricles) which progresses to heart failure (Morisco et al (2001) J Mol Cell Cardiol 33:561-573 and Grimm et al (1998) Cardiovascular Research 37:91-100). After 2 weeks of treatment, M-mode ECHO analysis was used to assess myocardial structure/function (FIG. 3A). In this model, an increased right ventricle lateral wall (RVLW) thickness indicates the presence of myocardiocytes growth, and an increased ratio of the right to left ventricle internal diameters (RVID/LVID) is an indicator of pathologic hypertrophy. An increased RVLW thickness but constant or reduced RVID:LVID ratio is an indicator of adaptive compensatory RV remodeling. Both hCT1 and ISO induced a significant increase in RVLW thickness (12% and 32% fold increase, respectively) compared to control rats (n=3; * and **, P<0.05). […] An in vivo growth reversal analysis was also conducted. Following a 2 week delivery of CT-1 protein (6 μg/kg/hr) or PE (10 mg/kg/day) as the pathologic control in this case, animals were then assessed for cardiac structure/function at a 6 week follow-on period. […] Collectively, these studies support the contention that CT-1 elicits a reversible physiologic cardiac adaptive compensation.

primary cardiomyocytes = experiment: Microarray gene expression analysis of primary cardiomyocytes (Affymetrix Rat gene 2.0ST array); assay type: cell-based; conditions: 0.5 nM, 24 hours, versus non-stimulated
Method: FIGS. 8A and 8B. […] FIG. 8B Microarray analysis of primary cardiomyocytes stimulated with hCT1 (0.5 nM) for 24 hours.
Applicant explored the role of CT-1 as a pro-angiogenic factor in the adaptive hypertrophic response. Physiologic cardiac adaptive compensation is associated with an increase in capillary density, whereas pathologic response is characterized by a decline or no change at all. Importantly, the compensatory vascular growth/angiogenesis that occurs during physiologic adaptive compensation is permissive for the increased workload that accompanies physiologic adaptive compensation. Despite this adaptation, little information exists regarding the mechanisms that match the demand for angiogenesis to the beneficial form of myocardial growth. The rapid in vitro and in vivo adaptive compensation in response to CT-1 supports a hypothesis that the cardiomyocyte itself may act in a paracrine fashion, to signal and promote angiogenesis. To address this conjecture, Applicant examined whether CT-1 treated primary cardiomyocytes produced vascular endothelial growth factor (VEGF), an angiogenic factor known to be produced and secreted by cardiomyocytes. Primary cardiomyocytes were incubated with control serum-free media (Ctrl, SF media) or stimulated with hCT1 (0.5 nM), PE (100 μM), or PAC-1 (25 μM) for 24 hours. […]

B1: hCT1: Recombinant human CT1 protein; 201 amino acid sequence, GenBank Accession Nos AAD12173 and AAA85229 (human) (protein, UniProt Q16619 1-201, looked up)
Cardiotrophin-1: MSRREGSLEDPQTDSSVSLLPHLEAKIRQTHSLAHLLTKYAEQLLQEYVQLQGDPFGLPSFSPPRLPVAGLSAPAPSHAGLPVHERLRLDAAALAALPPLLDAVCRRQAELNPRAPRLLRRLEDAARQARALGAAVEALLAALGAANRGPRAEPPAATASAASATGVFPAKVLGLRVCGLYREWLSRTEGDLGQLLPGGSA
RVID/LVID ratio, in words (rats): did not develop this pathologic state of cardiac hypertrophy
increase in RVLW thickness compared to control rats (rats; ISO 1 mg/kg/day, subcutaneous minipump): 12 % fold increase
VEGF increase (microarray) (primary cardiomyocytes): 1.3 fold
angiogenic and endothelial factors (Angpt14, Flt4, Vwa5a) expression (primary cardiomyocytes): robust induction

Source: patent US9962427B2, “Treatment of right ventricular dysfunction due to pressure overload” (OTTAWA HOSPITAL RESEARCH INSTITUTE, priority 2016, dated 2018)
